The RNAGym collection of RNA variant scans (doi:10.7554/elife.80360)

B1: Hairpin Ribozyme (parent)
chain: GUCCUCUUUCACGUGCGCGUGAAAGAGAGAAGUGAACCAGAGAAACACACGUUGUGGUAUAUUACCUGGUA

Variants of: B1
Test: self-cleavage, relative activity (ratio to wild type); higher = more cleavage; co-transcriptional

Point of comparison: GUCCUCUUUCACGUGAGCGUGAAAGAGAGAGGUGAACCAGAGAAACACACGUUGUGGUAUAUUACCUGGUA [C16A A31G], self-cleavage 0.536. Against it:
- GUCCUCUUUCACGUGAGCGUGAAGGAGAGAAGUGAACCAGAGAAACACACGUUGUGGUAUAUUACCUGGUA [C16A A24G] — higher, 0.763
- GUCCUCUUUCACGUGAGCGUGAACGAGAGAAGUGAACCAGAGAAACACACGUUGUGGUAUAUUACCUGGUA [C16A A24C] — higher, 0.71
- GUCCUCUUUCACGUUCGCGUGAAAGAUAGAAGUGAACCAGAGAAACACACGUUGUGGUAUAUUACCUGGUA [G15U G27U] — lower, 0.35
- GUCCUCUUUCACGUGAGCGUGAAAGAGAGAAGUGAACCAGAGAAACACACGUUGUGGUUUAUUACCUGGUA [C16A A59U] — lower, 0.212
- GUCCUCUUUCACGUUCGCGUGAAAGAGAUAAGUGAACCAGAGAAACACACGUUGUGGUAUAUUACCUGGUA [G15U G29U] — lower, 0.124
- GUCCUCUUUCACGUUCGCGUGAAAGAGAGAAGUGAACCAGAUAAACACACGUUGUGGUAUAUUACCUGGUA [G15U G42U] — lower, 0.369
- GUCCUCUUUCACGUGAGCGUGAAAGAGAGAAGUGAACCAGAGAAACACACGUUGUGGUAUAUUGCCUGGUA [C16A A64G] — lower, 0.455
- GUCCUCUUUCACGUUCGCGUGAAAGAGAGAAGUGAACCACAGAAACACACGUUGUGGUAUAUUACCUGGUA [G15U G40C] — lower, 0.0954
- GUCCUCUUUCACGUGAGCGUGAAAGCGAGAAGUGAACCAGAGAAACACACGUUGUGGUAUAUUACCUGGUA [C16A A26C] — lower, 0.488
- GUCCUCUUUCACGUGAGCGUGAAAGAGAGAAGUGGACCAGAGAAACACACGUUGUGGUAUAUUACCUGGUA [C16A A35G] — higher, 1.06
- GUCCUCUUUCACGUUCGCGUGAAAGAGAGAAGUGAACCAGAGAAACACACGUUGUGGUAUAUCACCUGGUA [G15U U63C] — lower, 0.14
- GUCCUCUUUCACGUUCGCGUGAAAGAGAGAAGUGAACCAGAGAAACACACGUUGUGGUAUAUGACCUGGUA [G15U U63G] — lower, 0.108
- GUCCUCUUUCACGUGAGCGUGAAAGAGAGAAGUGAACCGGAGAAACACACGUUGUGGUAUAUUACCUGGUA [C16A A39G] — lower, 0.243
- GUCCUCUUUCACGUGAGCGUGAAAGAGAGAAGUGAACCUGAGAAACACACGUUGUGGUAUAUUACCUGGUA [C16A A39U] — lower, 0.364
- GUCCUCUUUCACGUGAGCGUGAAAGAGAGAAGUGAACCAGAGAUACACACGUUGUGGUAUAUUACCUGGUA [C16A A44U] — lower, 0.133
- GUCCUCUUUCACGUUCGCGUGAAAGAGAGAAGUGAACCAGAGAAACACACGUUGUGGAAUAUUACCUGGUA [G15U U58A] — higher, 0.831
- GUCCUCUUUCACGUGAGCGUGUAAGAGAGAAGUGAACCAGAGAAACACACGUUGUGGUAUAUUACCUGGUA [C16A A22U] — higher, 0.816
- GUCCUCUUUCACGUGAGCGUGAAAGAGAGAAGUGAACCAGAGAAACACACGUUGUGGUAUAUUACCUGGUG [C16A A71G] — higher, 1.04
- GUCCUCUUUCACGUGAGCGUGAAAGAGAGAAGUGAACCAGAGAAACACACGUUGUGGUAUAUUACCUGGUC [C16A A71C] — higher, 1.1
- GUCCUCUUUCACGUUCGCGUGAAAGAGAGAAGUGAACCAGAGAAACACACGUGGUGGUAUAUUACCUGGUA [G15U U53G] — higher, 0.645
- GUCCUCUUUCACGUGAGCGUGAAAGAGAGAAGUGAACCAGAGGAACACACGUUGUGGUAUAUUACCUGGUA [C16A A43G] — lower, 0.118
- GUCCUCUUUCACGUGAGCGUGAAAGAGAGAAGUGAACCAGAGCAACACACGUUGUGGUAUAUUACCUGGUA [C16A A43C] — lower, 0.116
- GUCCUCUUUCACGUGAGCGUGAAAGAGAGAAGUGAACCAGAGAAACACCCGUUGUGGUAUAUUACCUGGUA [C16A A49C] — lower, 0.0771
- GUCCUCUUUCACGUGAGCGUGAAAGAGAGAAGUGACCCAGAGAAACACACGUUGUGGUAUAUUACCUGGUA [C16A A36C] — lower, 0.399
- GUCCUCUUUCACGUUCGCGUGAAAGAGAGAAGUGAACCAGAGAAACACACGUUGUGGUAAAUUACCUGGUA [G15U U60A] — higher, 0.932
- GUCCUCUUUCACGUUCGCGUGAAAGAGAGAAGUGAACCAGAGAAACACACGUUGUGGUAGAUUACCUGGUA [G15U U60G] — higher, 0.57
- GUCCUCUUUCACGUUCGCGUGAAAGAGAGAAGUAAACCAGAGAAACACACGUUGUGGUAUAUUACCUGGUA [G15U G34A] — higher, 1.33
- GUCCUCUUUCACGUUCGCGUGAAAGAGAGAAGUCAACCAGAGAAACACACGUUGUGGUAUAUUACCUGGUA [G15U G34C] — higher, 1.33
- GUCCUCUUUCACGUGAGCGUGACAGAGAGAAGUGAACCAGAGAAACACACGUUGUGGUAUAUUACCUGGUA [C16A A23C] — higher, 0.983
- GUCCUCUUUCACGUGAGCGUGAAAGAGAGAAGUGAACCAGAGAAACACACGUUGUGGUAUAUUACCUGGUA [C16A] — higher, 0.903
- GUCCUCUUUCACGUUCGCGUGAAAGAGAGAAGUGAACCAGAGAAACACACGUUGUGCUAUAUUACCUGGUA [G15U G57C] — lower, 0.128
- GUCCUCUUUCACGUUCGCGUGAAAGAGAGAAGUGAACCAGAGAAACACACGUUGUAGUAUAUUACCUGGUA [G15U G56A] — lower, 0.187
- GUCCUCUUUCACGUUCGCGUGAAAGAGAGAAGUGAACCAGAGAAACACACGUUAUGGUAUAUUACCUGGUA [G15U G54A] — higher, 0.695
- GUCCUCUUUCACGUUCGCGUGAAAGAGAGAAGUGAACCAGAGAAACACACGUUUUGGUAUAUUACCUGGUA [G15U G54U] — higher, 0.632
- GUCCUCUUUCACGUGAGCGUGAAAGAGAGAAGUGAAUCAGAGAAACACACGUUGUGGUAUAUUACCUGGUA [C16A C37U] — lower, 0.519
- GUCCUCUUUCACGUUCGCGUGAAAGAGAGAAGUGAACCAGAGAAACACACGUUGUGGUAUAUUACCUGGGA [G15U U70G] — higher, 0.873
- GUCCUCUUUCACGUUCGCGUGAAAGAGAGAAGUGAACCAGAGAAACACACGUUGUGGUAUAUUACCGGGUA [G15U U67G] — lower, 0.364
